Assay results: patent US20260242485A1 (LEPU BIOPHARMA, published 2026)

T1: human CD32B expressed on CHO-K1 cells (human, UniProt P31994 43-310)
T1 construct: whole, on cells; also called hCD32B
T1 sequence (looked up): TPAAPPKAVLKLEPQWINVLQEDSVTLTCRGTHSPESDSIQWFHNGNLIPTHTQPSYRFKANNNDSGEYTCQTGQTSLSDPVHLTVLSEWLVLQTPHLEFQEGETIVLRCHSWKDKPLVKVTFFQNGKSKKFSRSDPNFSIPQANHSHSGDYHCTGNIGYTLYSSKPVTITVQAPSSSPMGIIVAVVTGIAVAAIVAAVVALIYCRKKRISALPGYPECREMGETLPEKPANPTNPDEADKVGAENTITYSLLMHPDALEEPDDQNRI


How the values were obtained:
[1] = target: T2, human CD16B-NA1 ECD his tag protein (human, UniProt O75015 17-200); assay: ELISA, hCD16B-NA1-his coated at 2 ug/mL, OD450
T2 construct: extracellular domain; Bought protein; also called hCD16B-NA1-his; hCD16B-NA1 protein
T2 sequence (O75015 other isoform, or with tags, fused parts or gaps limits assumed): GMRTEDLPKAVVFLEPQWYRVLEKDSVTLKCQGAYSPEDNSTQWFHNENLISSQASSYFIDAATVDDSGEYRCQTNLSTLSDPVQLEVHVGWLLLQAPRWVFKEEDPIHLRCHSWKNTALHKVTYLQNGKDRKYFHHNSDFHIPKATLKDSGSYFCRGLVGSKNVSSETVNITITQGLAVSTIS
Method: (§1) In order to determine the binding ability of the chimeric Abs to human CD16A protein, ELISA-based binding assay was performed as followed. […] The mixture was incubated for 1 hour at room temperature (RT). The primary antibody was recognized by a detective antibody against human IgG Fc which was conjugated with horseradish peroxidase (HRP) (Jackson Immuno, Cat. No. 109-035-008). Tetramethylbenzidine (TMB), a substrate of HRP, was added to the wells to visualize the binding signal. After sufficient color development, stop solution was added to the wells. The absorbance of the signal was detected at 450 nm with Envision multilabel plate readers (PerkinElemer). The graph and statistics analysis were generated with four-parameter nonlinear regression curve fit in Graphpad Prism 9 software.
(§2) In order to determine the binding ability of the chimeric Abs to human CD16B protein, ELISA binding assay was performed as previously described. Three spliced isoforms of CD16B including human CD16B-NA1 ECD his tag protein (hCD16B-NA1-his, Acro Bio, Cat: No. CDB-H5227), human CD16B-NA2 ECD his tag protein (hCD16B-NA2-his, Acro Bio, Cat: No. CDB-H82Ea) and human CD16B-SH-his protein, were used as the coating antigens at 2 μg/mL.

[2] = target: T1, human CD32B expressed on CHO-K1 cells; assay: flow cytometry, CHO-K1-hCD32B cells, geometric mean
Method: (§3) In order to evaluate the binding activity of the chimeric mAbs to human CD16A expressed on cells, cell-based binding assay was employed as followed. […] The antibody dilutions were incubated with 1×10⁵ indicated cells in the 96-well microplate for one hour at 4° C. The antibodies binding to the antigen on the cell surface were detected with PE fluorophore-conjugated anti-human IgG Fc secondary antibodies (ThermoFisher scientific, Cat. No. 12-4998-82) at a dilution rate of 1:1000. Cells were analyzed by flow cytometer LSRFortessa Cell Analyzer (BD Biosciences). Data were analyzed with Flowjo 10.0 software. The graph and statistics analysis were generated with four-parameter nonlinear regression curve fit in Graphpad Prism 9 software.
(§4) To exclude the non-specific binding of the CD16A chimeric antibody to human CD16B and CD32B expressed on cells, cell-based binding assay was performed as described above. Firstly, CHO-K1 cells were stably transferred with one human CD16B spliced isoform hCD16B-NA1 and human CD32B. Then, the cells were incubated with the indicated concentrations of CD16A chimeric antibodies.

[3] = target: T3, human CD16B-NA1 expressed on CHO-K1 cells (human, UniProt O75015 17-200); assay: flow cytometry, CHO-K1-hCD16B-NA1 cells, geometric mean
T3 construct: whole, on cells; also called hCD16B-NA1; CHO-K1-hCD16B-NA1
T3 sequence (O75015 other isoform, or with tags, fused parts or gaps): as the sequence (O75015 other isoform, or with tags, fused parts or gaps limits assumed) above
Method: as §3, §4

[4] = target: T4, hCD16A-158V-his protein (human, UniProt P08637 17-208); assay: ELISA, plate-coated his-tagged antigen 2 ug/mL
T4 construct: extracellular domain; Bought protein; also called human CD16A-158V-his; Human CD16A-158V (protein)
T4 sequence (P08637 17-208 F176V): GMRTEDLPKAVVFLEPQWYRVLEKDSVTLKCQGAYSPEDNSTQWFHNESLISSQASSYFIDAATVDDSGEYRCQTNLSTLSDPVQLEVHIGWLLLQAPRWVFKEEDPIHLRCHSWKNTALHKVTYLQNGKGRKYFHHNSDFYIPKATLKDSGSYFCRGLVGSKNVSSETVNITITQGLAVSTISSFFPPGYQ
Method: as §1
(§5) In order to determine the cross reactivity of the chimeric Abs to cynomolgus CD16, ELISA binding assay was performed as described above. Recombinant cyno CD16 ECD his tag protein (cynoCD16-his, Acro Bio, Cat. No. FC6-C52H9) was used as the coating antigen at 2 μg/mL.

[5] = target: T5, hCD16A-158F-his protein (human, UniProt P08637 17-208); assay: ELISA, plate-coated his-tagged antigen 2 ug/mL
T5 construct: Bought protein
T5 sequence (P08637 17-208 limits assumed): as the sequence (P08637 17-208 F176V) above, with V160F counted along it
Method: as §1, §5

[6] = target: T4, hCD16A-158V-his protein; assay: SPR (Biacore 8K), antibody captured on Protein A chip, antigen at 50 nM
Method: (§6) The binding affinity of the chimeric antibodies to human CD16A was determined with Biacore™. Briefly, the antibodies were captured with a Protein A chip. […] The antigen was allowed to dissociate for 500 s. The experiment was carried out on a Biacore™ 8K. Data analysis was carried out using Biacore™ 8K evaluation software.

[7] = target: T5, hCD16A-158F-his protein; assay: as above
Method: as §6

[8] = target: T6, human CD16A-158F expressed on CHO-K1 cells (human, UniProt P08637 17-254); assay: flow cytometry on antigen-expressing CHO-K1 cells
T6 construct: whole, on cells
T6 sequence (P08637 17-254): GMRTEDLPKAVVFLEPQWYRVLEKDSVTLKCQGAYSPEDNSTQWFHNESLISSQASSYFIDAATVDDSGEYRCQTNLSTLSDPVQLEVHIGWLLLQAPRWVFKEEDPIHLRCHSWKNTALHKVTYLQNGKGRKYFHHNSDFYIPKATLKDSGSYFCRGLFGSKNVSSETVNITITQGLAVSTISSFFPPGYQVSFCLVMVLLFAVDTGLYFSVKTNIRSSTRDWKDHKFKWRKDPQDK
Method: as §3
(§7) CHO-K1 cells stably expressing cynomolgus CD16 were used in the following test.

[9] = target: T7, human CD16A-158V expressed on CHO-K1 cells (human, UniProt P08637 17-254); assay: flow cytometry on antigen-expressing CHO-K1 cells
T7 construct: whole, on cells; also called hCD16A-158V; CHO-K1-hCD16A-158V
T7 sequence (P08637 17-254 F176V): as the sequence (P08637 17-254) above, with F160V counted along it
Method: as §3, §7

[10] = target: T8, human CD16B-NA2 ECD his tag protein (human, UniProt O75015 17-200); assay: ELISA, hCD16B-NA2-his coated at 2 ug/mL, OD450
T8 construct: extracellular domain; Bought protein; also called hCD16B-NA2-his; hCD16B-NA2 protein
T8 sequence (O75015 17-200 N65S limits assumed): as the sequence (O75015 other isoform, or with tags, fused parts or gaps limits assumed) above, with R20S, N49S, D66N, V90I counted along it
Method: as §1, §2

| binding result [1] | binding result [2] | binding result [3] | EC50 [4] [nM] | EC50 [5] [nM] | Kd [6] [nM] | koff [6] [s⁻¹] | kon [6] [M⁻¹ s⁻¹] | Kd [7] [nM] | koff [7] [s⁻¹] | kon [7] [M⁻¹ s⁻¹] | EC50 [8] [nM] | EC50 [9] [nM] | binding result [10] | Binder |
| --- | --- | --- | --- | --- | --- | --- | --- | --- | --- | --- | --- | --- | --- | --- |
| no binding (tested: 20 nM) | no binding (tested: 100 nM) | no binding (tested: 100 nM) | 0.11 | 0.42 | 0.303 | 0.00139 | 4.59e+06 | 0.226 | 0.000873 | 3.86e+06 | 0.5 | 0.47 | no binding (tested: 20 nM) | 42F5H2-hIgG1 LALAPG (antibody, also called 42F5H2 chimeric Ab) heavy: QVQLQQPGAELVRPGASVKLSCKASGYTFTSYWMNWVKQRPGQGLEWIGMIDPSDSETHHNQMFKDKATLTVDKSSSTAYMQLSSLTSEDSAVYYCAKWLPPYAMDYWGQGTSVTVSSASTKGPSVFPLAPSSKSTSGGTAALGCLVKDYFPEPVTVSWNSGALTSGVHTFPAVLQSSGLYSLSSVVTVPSSSLGTQTYICNVNHKPSNTKVDKKVEPKSCDKTHTCPPCPAPEAAGGPSVFLFPPKPKDTLMISRTPEVTCVVVDVSHEDPEVKFNWYVDGVEVHNAKTKPREEQYNSTYRVVSVLTVLHQDWLNGKEYKCKVSNKALGAPIEKTISKAKGQPREPQVYTLPPSREEMTKNQVSLTCLVKGFYPSDIAVEWESNGQPENNYKTTPPVLDSDGSFFLYSKLTVDKSRWQQGNVFSCSVMHEALHNHYTQKSLSLSPGK light: not shown |
| no binding (tested: 20 nM) | no binding (tested: 100 nM) | no binding (tested: 100 nM) | 0.17 | 1.2 | 1.26 | 0.00377 | 2.98e+06 | 1.62 | 0.00531 | 3.27e+06 | 0.74 | 0.68 | no binding (tested: 20 nM) | 37B3G11-hIgG1 LALAPG (antibody, also called 37B3G11 chimeric Ab) heavy: QVQLQQPGAELVRPGASVKLSCKASGYTFTTYWMNWVKQRPGQGLEWIGMIDPSDSETHYNQMFKDKATLTVDKSSSTAYMQLSSLTSEDSAVYYCAVPSLYNSNYRFAYWGQGTLVTVSAASTKGPSVFPLAPSSKSTSGGTAALGCLVKDYFPEPVTVSWNSGALTSGVHTFPAVLQSSGLYSLSSVVTVPSSSLGTQTYICNVNHKPSNTKVDKKVEPKSCDKTHTCPPCPAPEAAGGPSVFLFPPKPKDTLMISRTPEVTCVVVDVSHEDPEVKFNWYVDGVEVHNAKTKPREEQYNSTYRVVSVLTVLHQDWLNGKEYKCKVSNKALGAPIEKTISKAKGQPREPQVYTLPPSREEMTKNQVSLTCLVKGFYPSDIAVEWESNGQPENNYKTTPPVLDSDGSFFLYSKLTVDKSRWQQGNVFSCSVMHEALHNHYTQKSLSLSPGK light: not shown |
| no binding (tested: 20 nM) | no binding (tested: 100 nM) | no binding (tested: 100 nM) | 0.13 | 0.44 | 3.81 | 0.0107 | 2.81e+06 | 2.45 | 0.00772 | 3.16e+06 | 0.77 | 0.8 | no binding (tested: 20 nM) | 23H7E4-hIgG1 LALAPG (antibody, also called 23H7E4 chimeric Ab) heavy: QVQLQQPGAELVRPGASVKLSCKASGYTFTSYWLNWVKQRPGQGLEWIGMIDPSDSETHYNQVFKDKATLTVDKSSTTAYMQLSSLTSEDSAVYYCARWMVTKKTFDYWGQGTTLTVSSASTKGPSVFPLAPSSKSTSGGTAALGCLVKDYFPEPVTVSWNSGALTSGVHTFPAVLQSSGLYSLSSVVTVPSSSLGTQTYICNVNHKPSNTKVDKKVEPKSCDKTHTCPPCPAPEAAGGPSVFLFPPKPKDTLMISRTPEVTCVVVDVSHEDPEVKFNWYVDGVEVHNAKTKPREEQYNSTYRVVSVLTVLHQDWLNGKEYKCKVSNKALGAPIEKTISKAKGQPREPQVYTLPPSREEMTKNQVSLTCLVKGFYPSDIAVEWESNGQPENNYKTTPPVLDSDGSFFLYSKLTVDKSRWQQGNVFSCSVMHEALHNHYTQKSLSLSPGK light: DIVLTQSPASLAVSLGQRATISCRASESVEYYGPSLMQWYQQKPGQPPKLLIYAASNVESGVPARFSGSGSGTDFSLNIHPVEEDDIAMYFCQQSRKVPYTFGGGAKLEIKRTVAAPSVFIFPPSDEQLKSGTASVVCLLNNFYPREAKVQWKVDNALQSGNSQESVTEQDSKDSTYSLSSTLTLSKADYEKHKVYACEVTHQGLSSPVTKSFNRGEC |
| no binding (tested: 20 nM) | no binding (tested: 100 nM) | no binding (tested: 100 nM) | 0.12 | 0.41 | 0.223 | 0.00142 | 6.93e+06 | 0.138 | 0.00102 | 7.39e+06 | 0.46 | 0.45 | no binding (tested: 20 nM) | 91A11D11-hIgG1 LALAPG (antibody, also called 91A11D11 chimeric Ab) heavy: QVQLQQPGAELVRPGTSVKLSCKASGYTFTSYWMNWVKQRPGQGLEWIGMIDPSDSETHYNQMFKDKATLTVDESSSTAYMQLSSLTSEDSAVYFCARWTLVVAHFFDYWGQGTTLTVSSASTKGPSVFPLAPSSKSTSGGTAALGCLVKDYFPEPVTVSWNSGALTSGVHTFPAVLQSSGLYSLSSVVTVPSSSLGTQTYICNVNHKPSNTKVDKKVEPKSCDKTHTCPPCPAPEAAGGPSVFLFPPKPKDTLMISRTPEVTCVVVDVSHEDPEVKFNWYVDGVEVHNAKTKPREEQYNSTYRVVSVLTVLHQDWLNGKEYKCKVSNKALGAPIEKTISKAKGQPREPQVYTLPPSREEMTKNQVSLTCLVKGFYPSDIAVEWESNGQPENNYKTTPPVLDSDGSFFLYSKLTVDKSRWQQGNVFSCSVMHEALHNHYTQKSLSLSPGK light: DIVLTQSPASLAVSLGQRATISCRASETVEYYGPSLLQWYQQKPGQPPKLLIYGASNVESGVPARFSGSGSGTDFSLNIHPVEEDDVAMYFCQQSRKVPYTFGGGTKLEIKRTVAAPSVFIFPPSDEQLKSGTASVVCLLNNFYPREAKVQWKVDNALQSGNSQESVTEQDSKDSTYSLSSTLTLSKADYEKHKVYACEVTHQGLSSPVTKSFNRGEC |
